From paper PMC4797271, “The quorum-sensing regulator ComA from Bacillus subtilis activates transcription using topologically distinct DNA motifs” (Nucleic Acids Research, 2015) come the findings set out here.

The target of this assay is T1, sigma-factor σ^A from Bacillus subtilis (Bacillus subtilis W168, UniProt P06224 1-371).
T1 construct: RNA polymerase sigma factor A (house-keeping sigma factor), Bacillus subtilis W168; gene amplified from the chromosome and cloned into pBAD18; also called house-keeping sigma-factor σ^A; σ^A-subunit of RNAP; source: E. coli, pBAD18, purified on Ni-NTA columns
T1 sequence (P06224 whole entry): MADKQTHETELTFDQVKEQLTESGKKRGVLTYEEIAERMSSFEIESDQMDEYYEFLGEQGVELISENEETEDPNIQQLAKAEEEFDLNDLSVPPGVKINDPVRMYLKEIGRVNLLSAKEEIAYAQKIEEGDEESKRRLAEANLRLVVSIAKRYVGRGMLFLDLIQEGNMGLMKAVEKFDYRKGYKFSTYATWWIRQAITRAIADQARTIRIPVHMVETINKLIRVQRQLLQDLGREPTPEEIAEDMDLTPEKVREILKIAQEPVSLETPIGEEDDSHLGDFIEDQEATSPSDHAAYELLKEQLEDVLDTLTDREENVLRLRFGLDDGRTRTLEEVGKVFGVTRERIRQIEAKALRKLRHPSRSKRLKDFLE
Description: native gel or EMSA; super-shift of ComA-bound biotinylated rapA promoter DNA (ComA at full occupancy) on adding α or σ^A; 10 mM HEPES pH 7.6, 2 mM MgCl2, 0.1 mM EDTA, 200 mM KCl, 5 mM DTT, 10% glycerol; 20 min at room temperature; native 8% polyacrylamide gel, 0.5x TBE. To be noted: both partners purified. In general terms: Mobility shift assays separate free from complexed probe on a gel.

B1: ComA from Bacillus subtilis (His6-tagged ComA protein) (natural protein, Bacillus subtilis W168, UniProt P14204 1-214, looked up)
chain: MKKILVIDDHPAVMEGTKTILETDSNLSVDCLSPEPSEQFIKQHDFSSYDLILMDLNLGGEVNGMELSKQILQENPHCKIIVYTGYEVEDYFEEAIRAGLHGAISKTESKEKITQYIYHVLNGEILVDFAYFKQLMTQQKTKPAPSSQKEQDVLTPRECLILQEVEKGFTNQEIADALHLSKRSIEYSLTSIFNKLNVGSRTEAVLIAKSDGVL
notes: Transcription factor ComA, Bacillus subtilis W168; gene amplified from the chromosome and cloned into pBAD18; At full occupancy the rapA promoter probably carries more than one dimer; also called recombinant His6-tagged ComA; source: E. coli, pBAD18, purified on Ni-NTA columns; not shown: His6, N-terminal, kept
As for B1, the binding result was “binds”.
